Experimental data taken from the supplement of paper PMC10567573.

B1: DLC1 (parent)
chain: AEVVKIRDSFSNQNTETKDTKSR
B2: ATL3 (parent)
chain: YGLQGGMAFLDKRLQVKEHQHEEI

Variants of: B1
Assay: protein stability index of a GFP-peptide fusion (GPS, HEK-293T) (PSI 1-6); higher = more stable
Conditions: c terminus: native
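Note: lentivirally expressed fusions sorted by FACS into six bins by GFP to DsRed ratio, PSI derived from sequencing read proportions per bin multiplied by bin number.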

Protein stability index: each site, then its substitutions
I6: M 2.64; G 2.38; V 2.74; E 3.33; S 2.74; T 3.6; Q 2.67; D 2.79; H 2.42; P 3.4; L 2.74; A 2.47; C 2.43; R 3.18; K 3.3; F 2.41; Y 2.65
E2: V 1.7; H 2.02; D 2.99; A 1.88; S 2.75; K 1.81; G 1.95; M 1.63; F 2.11; C 2.43; L 1.03; T 3.03; Q 1.79; Y 1.52; N 2.04; R 1.88
T17: F 2.54; M 2.68; D 1.83; P 2.97; L 2.34; W 3.5; N 1.86; A 2.22; I 2.41; Y 2.31; K 2.17; Q 2.61; G 4.08; C 2.11; V 1.26; E 2.43; H 1.73; R 1.84
V4: D 3.04; I 1.98; W 2.05; E 2.59; H 2.14; G 2.01; R 2.3; Q 2.81; K 2.3; F 2.89; M 2.05; N 2.48; S 2.12; Y 2.76; T 2.18; A 1.73; C 2.3; L 4.87; P 3.04
V3: N 3; E 2.12; Q 2.47; A 2.24; Y 1.7; R 1.89; H 2; P 3.46; C 2.69; K 4.55; I 1.63; S 1.95; M 2.87; F 2.09; T 2.19; D 3.54; L 2.29; W 2.53; G 2.12
K5: N 2.93; H 2.58; V 1.94; Q 2.43; Y 2.13; A 2; C 2.88; R 2.33; S 2.77; T 2.88; D 3.23; E 3.01; L 2.4; I 2.02; W 1.84; P 2.67; M 2.09; G 3.3
K18: C 2.84; A 1.17; D 1.39
N12: M 2.5; C 1.63; I 2.17; V 1.68; E 2.71; R 1.7; P 1.95; K 2.17; Y 1.78; L 3.05; T 2.23; Q 2.03; G 2.51; S 1.86; F 1.81; H 2.44; A 2.33
S9: F 1.48; P 2.64; C 2.8; M 2.92; I 1.49; L 2.95; V 2.25; W 2.14; N 2.22; Y 1.67; K 2.32; H 3.54; A 2.55; R 2.53; T 2.29; D 2.27; G 2; E 3.48; Q 1.87
Q13: K 1.77; N 2.56; W 2.36; M 1.94; A 2.41; Y 2.92; G 2.33; P 2.4; F 2.26; T 2.45; S 1.87; R 3.77; L 2.31; V 3.62; E 2.9; D 2.37; H 2.32; C 1.93
S11: V 2.35; Q 2.62; K 3.15; L 1.88; W 1.88; E 2.4; R 2.78; Y 2.65; P 2.54; T 2.48; H 2.61; D 2.05; G 2.36; A 1.9; F 2.85; N 4.69; C 2.58; I 1.9; M 1.46
R7: A 3.56; I 2.52; E 2.99; L 3.01; G 2.87; V 3.12; C 2.5; W 1.69; S 2.42; P 3.24; M 3.19; D 3.65; F 3.38; Y 1.77; K 2.88; H 2.21; N 3.31
D8: E 2.92; L 2.62; H 2.41; F 3.02; T 2.32; G 2.23; S 1.8; Y 3.5; M 1.65; N 2.07; V 3.31; C 1.46; K 2.08; Q 1.26; P 1.73; A 2.53
A1: D 3.12; K 3.16; S 1.75; T 2.08; R 2.73; M 2.37; F 2.06; G 2.9; V 1.92; Y 1.79; N 3.03; Q 3.03; C 2.19; H 2.51; L 2.08; P 1.72; I 2.06; W 2.76
F10: E 3.46; A 3.76; Q 3.46; Y 2.53; I 2.32; M 2.93; P 3.63; C 2.54; N 3.64; H 3.71; V 2.95; D 4; L 3.26; G 4.24; T 3.68; K 4.18; R 4.5; S 4
E16: T 2.06; K 3.12; P 2.41; S 1.9; A 2.43; Q 3.17; W 1.95; F 3.13; I 1.97; M 1.51; R 2.31; D 3.35; C 1.84; N 2.27; L 1.91; G 2.38; H 3; Y 1.31; V 3.04
T15: P 2.08; A 2.14; S 2.75; V 2.38; L 2.17; G 4.39; D 3.36; Y 1.62; E 3.38; I 1.62; F 2.36; R 1.67; Q 2.98; M 1.86; H 1.77; K 2.21; W 2.05; C 2.08; N 2.52
N14: C 2.16; F 1.93; W 2.37; H 2.46; L 2.09; Q 2.37; P 3.12; I 2.08; K 2.44; A 1.86; G 2.08; R 2.48; S 1.96; D 2.33; V 1.66; T 2.55; E 2.24

Variants of: B2
Assay: as above
Conditions: c terminus: a fixed tail appended

Protein stability index of substitutions, site by site:
R13: W 1.73; L 2.3
Q15: W 2.37; R 2.28
H21: K 3.21
E22: G 2.8
E23: T 2.74
Q20: R 1.57
V16: M 2.42; L 2.81
D11: Y 2.74; Q 1.72
F9: P 4.69; A 4.3
I24: M 1.71; Q 2.14; Y 4.04
Y1: K 4.26; L 3.38; I 4.07; A 4.57
L14: R 2.48; Y 3.4
L10: Q 1.65; G 1.89; N 2.05
A8: F 3.46
